The series “co-sedimentation” concerns the molecule itself. In words: co-sedimentation.
The series “negative stain EM” concerns the molecule itself. In words: negative stain EM.
The target in series [1] is T1, barrier-to-autointegration factor (BAF) (human, UniProt O75531 1-89).
T1 sequence (looked up): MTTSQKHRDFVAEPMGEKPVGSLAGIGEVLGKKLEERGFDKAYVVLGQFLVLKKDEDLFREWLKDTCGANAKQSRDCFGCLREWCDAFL
In words: SEC. A general note: SEC sorts molecules by how far they enter the pores of the column.

A further series deals with T2, full-length human CHMP7 (human, UniProt Q8WUX9 1-453).
T2 sequence (looked up): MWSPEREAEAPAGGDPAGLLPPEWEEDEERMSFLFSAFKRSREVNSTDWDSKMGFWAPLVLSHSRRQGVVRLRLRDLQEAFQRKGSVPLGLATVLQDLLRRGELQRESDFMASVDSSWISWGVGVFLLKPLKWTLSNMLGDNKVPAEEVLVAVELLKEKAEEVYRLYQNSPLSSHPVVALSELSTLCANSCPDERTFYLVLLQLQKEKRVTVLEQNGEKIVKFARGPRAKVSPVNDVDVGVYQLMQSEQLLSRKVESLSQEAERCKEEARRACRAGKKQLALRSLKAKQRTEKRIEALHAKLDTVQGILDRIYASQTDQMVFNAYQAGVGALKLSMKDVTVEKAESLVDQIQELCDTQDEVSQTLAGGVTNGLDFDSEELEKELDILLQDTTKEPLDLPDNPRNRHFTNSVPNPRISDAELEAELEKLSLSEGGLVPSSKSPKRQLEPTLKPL
In words: cross-linking.

The results in this text go back to publication doi:10.1101/577460 (bioRxiv, 2019).

B1: CHMP7_(R270E + I312E) (natural protein, human, UniProt Q8WUX9 1-453, looked up)
chain: MWSPEREAEAPAGGDPAGLLPPEWEEDEERMSFLFSAFKRSREVNSTDWDSKMGFWAPLVLSHSRRQGVVRLRLRDLQEAFQRKGSVPLGLATVLQDLLRRGELQRESDFMASVDSSWISWGVGVFLLKPLKWTLSNMLGDNKVPAEEVLVAVELLKEKAEEVYRLYQNSPLSSHPVVALSELSTLCANSCPDERTFYLVLLQLQKEKRVTVLEQNGEKIVKFARGPRAKVSPVNDVDVGVYQLMQSEQLLSRKVESLSQEAERCKEEAERACRAGKKQLALRSLKAKQRTEKRIEALHAKLDTVQGILDREYASQTDQMVFNAYQAGVGALKLSMKDVTVEKAESLVDQIQELCDTQDEVSQTLAGGVTNGLDFDSEELEKELDILLQDTTKEPLDLPDNPRNRHFTNSVPNPRISDAELEAELEKLSLSEGGLVPSSKSPKRQLEPTLKPL
Consider B1, for which the binding result in the series “co-sedimentation” is “binds”.

B2: CHMP7_(R270E + V339D) (natural protein, human, UniProt Q8WUX9 1-453, looked up)
chain: MWSPEREAEAPAGGDPAGLLPPEWEEDEERMSFLFSAFKRSREVNSTDWDSKMGFWAPLVLSHSRRQGVVRLRLRDLQEAFQRKGSVPLGLATVLQDLLRRGELQRESDFMASVDSSWISWGVGVFLLKPLKWTLSNMLGDNKVPAEEVLVAVELLKEKAEEVYRLYQNSPLSSHPVVALSELSTLCANSCPDERTFYLVLLQLQKEKRVTVLEQNGEKIVKFARGPRAKVSPVNDVDVGVYQLMQSEQLLSRKVESLSQEAERCKEEAERACRAGKKQLALRSLKAKQRTEKRIEALHAKLDTVQGILDRIYASQTDQMVFNAYQAGVGALKLSMKDDTVEKAESLVDQIQELCDTQDEVSQTLAGGVTNGLDFDSEELEKELDILLQDTTKEPLDLPDNPRNRHFTNSVPNPRISDAELEAELEKLSLSEGGLVPSSKSPKRQLEPTLKPL
Regarding B2, the binding result in “co-sedimentation” was “binds”.

B3: CHMP7_(229-453) (domain or fragment, human, UniProt Q8WUX9 229-453, looked up)
chain: AKVSPVNDVDVGVYQLMQSEQLLSRKVESLSQEAERCKEEARRACRAGKKQLALRSLKAKQRTEKRIEALHAKLDTVQGILDRIYASQTDQMVFNAYQAGVGALKLSMKDVTVEKAESLVDQIQELCDTQDEVSQTLAGGVTNGLDFDSEELEKELDILLQDTTKEPLDLPDNPRNRHFTNSVPNPRISDAELEAELEKLSLSEGGLVPSSKSPKRQLEPTLKPL
Take B3: the binding result in the series “negative stain EM” was “binds”.

B4: LEM2_(1-72) (domain or fragment, human, UniProt Q8NC56 1-72, looked up)
chain: MAGLSDLELRRELQALGFQPGPITDTTRDVYRNKLRRLRGEARLRDEERLREEARPRGEERLREEARLREDA
For the molecule B4, the binding result in series [1] is on record as “binds”.

B5: His6-SUMO-LEM2_(395-503) (domain or fragment, human, UniProt Q8NC56 395-503, looked up)
chain: ILLKYRWRKLEEEEQAMYEMVKKIIDVVQDHYVDWEQDMERYPYVGILHVRDSLIPPQSRRRMKRVWDRAVEFLASNESRIQTESHRVAGEDMLVWRWTKPSSFSDSER
As for B5, the binding result in the series with full-length human CHMP7 is “binds”.
